Data taken from US12385055B2, “Compositions and methods for production of salidroside, icariside D2, and precursors of salidroside and icariside D2” (Whitehead Institute for Biomedical Research, priority 2017, dated 2025).

Assays:
[1] = molecular target: Rhodiola rosea Rr4HPAAS, 4-hydroxyphenylacetaldehyde synthase, GenBank MF674522, SEQ ID NO: 2 (Rhodiola rosea, UniProt A0A2I6B3P0); assay: Michaelis-Menten kinetics of Rr4HPAAS against aromatic amino acids; details: compared with L-tyrosine and L-DOPA; pH 8.0, 30° C.
Description: (§1) The AAS enzyme assays were performed in 100 μL of reaction buffer (50 mM Tris, pH 8.0) containing 50 μg of recombinant enzyme, 200 μM PLP. Kinetic reactions were incubated with a range of amino acid substrate concentrations (1 μM-4 mM) at 30° C. for 30 minutes prior to quenching with 100 μL of 0.8 M formic acid. […] Rr4HPAAS reactions were also analyzed by LC-MS-UV. 50 μL of reaction mixture was analyzed by an Ultimate 3000 liquid chromatography system (Dionex), equipped with a 150 mm C18 Column (Kinetex 2.6 μm silica core shell C18 100 Å pore, Phenomenex) and coupled to an UltiMate 3000 diode-array detector (DAD) in-line UV-Vis spectrophotometer (Dionex) and a TSQ Quantum Access MAX triple-quadrupole mass spectrometer (Thermo-Scientific). To resolve chromatographically L-tyrosine, tyrosol and 4-HPAAA, compounds were separated through the use of an isocratic mobile phase containing 50 mM monopotassium phosphate pH 4.6, 15% (v/v) acetonitrile and 0.5 mM octyl sulfate. Rr4HPAAS product formation was quantified using the UV absorbance at 280 nm and compared to analytical standards using the diode array detector wavelength at a wavelength range of 200-500 nm and chromatographic retention time. […]
(§2) Kinetic constants such as Km and Vmax were determined by fitting raw data to the Michaelis-Menten equation using the nonlinear regression function in Prism (version 7.0).

N. benthamiana leaves = assay: Agrobacterium-mediated transient expression in leaves with LC-HRAM-MS metabolic profiling; type: in vivo; details: leaves harvested 5 days after infiltration
Description: To further evaluate the biochemical function of R. rosea tyrosol glycoside biosynthetic genes in planta, these genes were expressed in N. benthamiana leaves using the Agrobacterium tumefaciens-mediated transient protein production technique (Sainsbury et al., 2009) followed by LC-HRAM-MS-based metabolic profiling. […] PsTyDC and the previously reported Petroselinum crispum 4HPAAS (Pc4HPAAS, GenBank: AAA33861) (Torrens-Spence et al., 2012) were also tested in parallel as controls. […] The chemical identity of these compounds was confirmed by both LC-HRAM-MS and nuclear magnetic resonance (NMR) analyses (FIGS. 20-26). […] Next, the in planta regio-specificity of RrT8GT and RrT4GT in tyrosol glycosylation was evaluated. […] Meanwhile, the accumulation of free tyrosol was reduced in these plants compared to those with Rr4HPAAS expression alone (FIG. 27). […]
Crown tissue and root tissue of a three-month-old R. rosea plant was harvested and stored at −80° C. before subsequent metabolomic analysis. […] The extracts were then analyzed by LC-HRAM-MS. […]

[2] = Hydrogen peroxide production from L-tyrosine by recombinant AAS candidates; type: biochemical; details: L-tyrosine as substrate
Description: FIG. 12 is a graph showing relative hydrogen peroxide production for the Rr4HPAAS, the RrAAS and the PsTyDC. 100 μL reaction mixtures containing 50 μg of recombinant enzyme, 2 mM L-tyrosine, 50 mM Tris pH 8.0 and 200 μM PLP were incubated at 30° C. for various time points prior to quenching with 100 μL of 0.8 M formic acid. Hydrogen peroxide levels of quenched reaction mixtures were subsequently analyzed using Pierce Quantitative Peroxide Assay Kit against a standard curve of hydrogen peroxide.
as §1, with “PLP.” for “PLP. Kinetic reactions were incubated with a range of amino acid substrate concentrations (1 μM-4 mM) at 30° C. for 30 minutes prior to quenching with 100 μL of 0.8 M formic acid.”, “To resolve chromatographically L-tyrosine, tyrosol and 4-HPAAA, compounds were separated through the use of an isocratic mobile phase containing 50 mM monopotassium phosphate pH 4.6, 15% (v/v) acetonitrile and 0.5 mM octyl sulfate.” left out

[3] = substrate: N[C@@H](Cc1ccc(O)c(O)c1)C(=O)O; assay: purified protein, by the assay type; details: other: amino acid substrate 1 μM-4 mM, 200 μM PLP, pH 8.0, 30° C., 30 min, peroxide assay
[4] = substrate: N[C@@H](Cc1ccc(O)cc1)C(=O)O; assay: purified protein, by the assay type; details: other: amino acid substrate 1 μM-4 mM, 200 μM PLP, pH 8.0, 30° C., 30 min, peroxide assay
Description: The AAS enzyme assays were performed in 100 μL of reaction buffer (50 mM Tris, pH 8.0) containing 50 μg of recombinant enzyme, 200 μM PLP. Kinetic reactions were incubated with a range of amino acid substrate concentrations (1 μM-4 mM) at 30° C. for 30 minutes prior to quenching with 100 μL of 0.8 M formic acid. […] Rr4HPAAS reactions were also analyzed by LC-MS-UV. 50 μL of reaction mixture was analyzed by an Ultimate 3000 liquid chromatography system (Dionex), equipped with a 150 mm C18 Column (Kinetex 2.6 μm silica core shell C18 100 Å pore, Phenomenex) and coupled to an UltiMate 3000 diode-array detector (DAD) in-line UV-Vis spectrophotometer (Dionex) and a TSQ Quantum Access MAX triple-quadrupole mass spectrometer (Thermo-Scientific). To resolve chromatographically L-tyrosine, tyrosol and 4-HPAAA, compounds were separated through the use of an isocratic mobile phase containing 50 mM monopotassium phosphate pH 4.6, 15% (v/v) acetonitrile and 0.5 mM octyl sulfate. Rr4HPAAS product formation was quantified using the UV absorbance at 280 nm and compared to analytical standards using the diode array detector wavelength at a wavelength range of 200-500 nm and chromatographic retention time. The reduction of aldehyde products was achieved by addition of saturated sodium borohydride in ethanol or by addition of 10 mM NADPH and 10 g of Rr4HPAR1 or Rr4HPAR2.

[5] = substrate: OCCc1ccc(O)cc1; assay: Michaelis-Menten kinetics of RrT8GT (RrUGT33), tyrosol 8-O-glucosylation; type: biochemical, Rhodiola rosea; details: other: substrate tyrosol (0.01-5.0 mM), 10 mM UDP-glucose, pH 8.0, 30° C., 10 min
Description: Kinetic characterization of UGTs was conducted in 200 μL reaction buffer (50 mM Tris, pH 8.0) containing 10 mM UDP-glucose and various concentrations of tyrosol (0.01-5.0 mM). Reactions were started with addition of recombinant enzyme, incubated at 30° C. for 10 minutes, and quenched by addition of 200 μL of methanol. The reaction mixed was then analyzed by LC-HRAR-MS as described above. Compounds were separated by reversed-phase chromatography with a ramp gradient of solvent A (0.1% formic acid in H2O) and solvent B (0.1% formic acid in acetonitrile): 5% solvent B for 0.5 min, 5-55% solvent B over 6 min, 55-5% solvent B over 1.0 min and a final equilibration of 5% solvent B for 1 min with a flow rate at 0.6 mL/min. Product formation was measured using select ion monitoring in positive mode for a centroid center mass of 318.15. Product mass was calculated by comparison to a standard curve of the NMR verified plant purified salidroside and icariside D2 samples.
as §2

N[C@@H](Cc1c[nH]c2ccccc12)C(=O)O [L-tryptophan]
substrate preference (Michaelis-Menten kinetics, in words) [1]: much less preferred substrates

N[C@@H](Cc1ccccc1)C(=O)O [L-phenylalanine]
substrate preference (Michaelis-Menten kinetics, in words) [1]: much less preferred substrates

B1: PsTyDC: Papaver somniferum tyrosine decarboxylase, tested as control (protein, UniProt O82415 1-512, looked up)
Tyrosine decarboxylase: MGSLPTNNLESISLCSQNPLDPDEFRRQGHMIIDFLADYYKNVEKYPVRSQVEPGYLKKRLPESAPYNPESIETILEDVTNDIIPGLTHWQSPNYFAYFPSSGSIAGFLGEMLSTGFNVVGFNWMSSPAATELESIVMNWLGQMLTLPKSFLFSSDGSSGGGGVLQGTTCEAILCTLTAARDKMLNKIGRENINKLVVYASDQTHCALQKAAQIAGINPKNVRAIKTSKATNFGLSPNSLQSAILADIESGLVPLFLCATVGTTSSTAVDPIGPLCAVAKLYGIWVHIDAAYAGSACICPEFRHFIDGVEDADSFSLNAHKWFFTTLDCCCLWVKDSDSLVKALSTSPEYLKNKATESKQVIDYKDWQIALSRRFRSMKLWLVLRSYGVANLRTFLRSHVKMAKHFQGLIGMDNRFEIVVPRTFAMVCFRLKPTAIFKQKIVDNDYIEDQTNEVNVKLLESVNASGKIYMTHAVVGGVYMIRFAVGATLTEERHVTGAWKVVQEHTDAILGA
metabolites produced on expression of the enzyme alone (N. benthamiana leaves): no measurable production of tyrosol glycosides

B2: Rhodiola rosea Rr4HPAAS, 4-hydroxyphenylacetaldehyde synthase, GenBank MF674522, SEQ ID NO: 2 (Rhodiola rosea) (protein)
chain: MGSLPSPNDPSNTFNPMDLTELSTESKLVVDFITQYYQTLETRPVQPRVKPGFLTGQLPDKAPFHGESMEVILSDVNEKIVPGLTHWQSPNFHAYFPASSSNAGLLGELLCSGLSVIGFTWSSSPAATELENVVVDWMAKMLNLPSSFCFSGGGGGVLQANTCEAVLCTLAAARDKALNRVGDDQINKLVLYCSDQTHFTIHKGAKLIGIRSKNIKSITTKKENEFKLCPNDLRDAIRSDLEAGLVPFYVCGTIGTTALGVVDPIKELGKVAREFDLWLHVDGAYGGSACICPEFQHYLDGVDLVDSISMNAHKWLLSNLDCCFLWLQSPNALIESLAAEANFLKGGSEMVDYKDWQISLSRRFRAIKMWMVIRRYGVSNLIEHIRSDVSMAVRFEEMVAADDRFEIVFPRKFALVCFKLSSEKTPPGRDSELTRELMERVNSSGKAYLSGVQMGRIFFIRCVIGSSLTEERHVDNLWRLIQETAQSIVS
hydrogen peroxide production [2]: much higher activity
metabolites produced on expression of the enzyme alone (N. benthamiana leaves): significant accumulation of both salidroside and icariside D2
Km [3]: 1040 ± 100 µM
Km [4]: 420 ± 20 µM
kcat [4]: 4.92 ± 0.08 s⁻¹
kcat/Km [4]: 11700 M⁻¹ s⁻¹

B3: Rhodiola rosea RrT8GT (RrUGT33), tyrosol:UDP-glucose 8-O-glucosyltransferase, SEQ ID NO: 20 (Rhodiola rosea) (protein)
chain: MSLIEKPLTAIETREKPHAVCIPYPAQGHINPMMQLAKLLHHSGFHITFVHTEYNYDRLVKSQGSACVAGLPDFRFEAIPDGLPSTNGDVTQDIPLLSSSTSKTCLKPFKELLKRLQDKCKELPDDVPPLSCIVSDAAMSFTIDASEEFGVPIALLWTASACGFLGYTHYPYLIDRGVIPLKDESQLTNGYLDMSIDGIPCMEGIRLRDLPSFLRTTDLDDMMFSYILHEIKQVSRGSAIILNTFEALDHDVLDSLSKIYQNVILPVGPLHVSLNKIPKHYPLQSLSSNLWKDDTDCIPWLSSKASKSVIYVNFGSITTVSPKQIVEFAWGLANSKHPFLWIIRPDLVAGEASIIPQDFMDETKGRGLLAGWCDQELVLNHPSIGGFLTHCGWNSIIESISAGVPTVCWPFFAEQQTNCWFACKKWCIGMEMHTDVKRDEVDKLLRELMEGDKGEELKRKATNWKRLAEEAVSSTGLSTLNFRTLVNQVLLSKTKHIR
Km [5]: 1370 ± 50 µM
kcat [5]: 576.2 ± 5.68 s⁻¹
kcat/Km [5]: 421000 M⁻¹ s⁻¹
